Positions count from the first letter of the chain named.
B1: aCD3-hVH1/VL5 (antibody, human IgG4, V domains shown)
VH: EVQLVESGGGLVQPGGSLRLSCAASGFTFNTYAMNWVRQAPGKGLEWVSRIRSKYNNYATYYADSVKDRFTISRDDSKNTLYLQMNSLRAEDTAVYYCVRHGNFGNSYVSWFAYWGQGTLVTVSS
VL: QAVVTQEPSLTVSPGGTVTLTCRSSTGAVTTSNYANWVQEKPGQAPRGLIGGTNKRAPWTPARFSGSLLGGKAALTITGAQAEDEAEYYCVLWYSNLWVFGGGTKLTVL
notes: also called humanized anti-CD3 antibody hVH1/VL5
B2: aCD3-hVH8/VL1 (antibody, human IgG4, V domains shown)
VH: B1 VH with Q39K, S49G, T80S, R89K, A90T, V99A
VL: B1 VL with E40Q, I77L, T78S, A82P, V91A
notes: also called humanized anti-CD3 antibody hVH8/VL1
B3: aCD3-hVH9/VL1 (antibody, human IgG4, V domains shown)
VH: B1 VH with Q39K, S49G, T80S, R89K, A90T
VL: B1 VL with E40Q, I77L, T78S, A82P, V91A
notes: also called humanized anti-CD3 antibody hVH9/VL1
B4: BCMA × CD3 κλ003 (bispecific antibody, human IgG4 S228P, kappa, lambda)
light 1: DIVLTQSPASLAVSPGQRATITCRASKSVSTSGYSYMHWYQKKPGQPPKLLIYLASNLESGVPARFSGSGSGTDFTLTINPVEAEDTANYYCQHSRELPWTFGQGTKVEIKRTVAAPSVFIFPPSDEQLKSGTASVVCLLNNFYPREAKVQWKVDNALQSGNSQESVTEQDSKDSTYSLSSTLTLSKADYEKHKVYACEVTHQGLSSPVTKSFNRGEC
heavy 1: QVQLVQSGSELKKPGASVKVSCKASGYIFTNFGMNWVREAPGQGLEWMGWINTYTGEQIYADGFTGRFVFSLDTSASTAYLQISSLKAEDTAVYFCARGEIYYGYDVGFVYWGQGTLVTVSSASTKGPSVFPLAPCSRSTSESTAALGCLVKDYFPEPVTVSWNSGALTSGVHTFPAVLQSSGLYSLSSVVTVPSSSLGTKTYTCNVDHKPSNTKVDKRVESKYGPPCPPCPAPEFEGGPSVFLFPPKPKDTLMISRTPEVTCVVVDVSQEDPEVQFNWYVDGVEVHNAKTKPREEQFNSTYRVVSVLTVLHQDWLNGKEYKCKVSNKGLASSIEKTISKAKGQPREPQVCTLPPSQEEMTKNQVSLSCAVKGFYPSDIAVEWESNGQPENNYKTTPPVLDSDGSFFLVSKLTVDKSRWQEGNVFSCSVMHEALHNHYTQKSLSLSLGK
light 2: QAVVTQEPSLTVSPGGTVTLTCRSSTGAVTTSNYANWVQEKPGQAPRGLIGGTNKRAPWTPARFSGSLLGGKAALTITGAQAEDEAEYYCVLWYSNLWVFGGGTKLTVLGQPKAAPSVTLFPPSSEELQANKATLVCLISDFYPGAVTVAWKADSSPVKAGVETTTPSKQSNNKYAASSYLSLTPEQWKSHRSYSCQVTHEGSTVEKTVAPTECS
heavy 2: EVQLVESGGGLVQPGGSLRLSCAASGFTFNTYAMNWVRKAPGKGLEWVGRIRSKYNNYATYYADSVKDRFTISRDDSKNSLYLQMNSLKTEDTAVYYCVRHGNFGNSYVSWFAYWGQGTLVTVSSASTKGPSVFPLAPCSRSTSESTAALGCLVKDYFPEPVTVSWNSGALTSGVHTFPAVLQSSGLYSLSSVVTVPSSSLGTKTYTCNVDHKPSNTKVDKRVESKYGPPCPPCPAPEFEGGPSVFLFPPKPKDTLMISRTPEVTCVVVDVSQEDPEVQFNWYVDGVEVHNAKTKPREEQFNSTYRVVSVLTVLHQDWLNGKEYKCKVSNKGLASSIEKTISKAKGQPREPQVYTLPPCQEEMTKNQVSLWCLVKGFYPSDIAVEWESNGQPENNYKTTPPVLDSDGSFFLYSKLTVDKSRWQEGNVFSCSVMHEALHNHYTQKSLSLSLGK
notes: also called BCMA×CD3 κλ bispecific antibody
B5: BCMA × CD3 κλ005 (bispecific antibody)
light 1: B4 light 1
heavy 1: B4 heavy 1 with A76V
light 2: B4 light 2
heavy 2: B4 heavy 2
notes: as for B4
B6: BCMA × CD3 κλ006 (bispecific antibody)
light 1: B4 light 1 with S30T, M37I, N57D, S60A
heavy 1: B4 heavy 1 with A76V
light 2: B4 light 2
heavy 2: B4 heavy 2
notes: as for B4
B7: aCD3-hVH8/VL5 (antibody, human IgG4, V domains shown)
VH: B1 VH with Q39K, S49G, T80S, R89K, A90T, V99A
VL: B1 VL
notes: also called humanized anti-CD3 antibody hVH8/VL5
B8: aCD3-hVH9/VL3 (antibody, human IgG4, V domains shown)
VH: B1 VH with Q39K, S49G, T80S, R89K, A90T
VL: B1 VL with Q1E, R23E, T26D, R56E, I77L, T78S, A82P, V91A
notes: also called humanized anti-CD3 antibody hVH9/VL3

Each binder was assayed against T1, human CD3 on T cells (Jurkat cells; human peripheral blood CD4+ and CD8+ T-cells) (human, UniProt P07766 23-207) (assay: flow cytometry on Jurkat cells).
T1 construct: whole, on cells; also called CD4T; CD4 + T
Experimental: Jurkat cells in logarithmic growth phase were blocked with 3% BSA for 30 min, added to 96-well U-plate at 5×10^4 cells per well, centrifuged to discard the supernatant, and added with 50 μL of gradient diluted antibody (antibody concentration:from 30 μg/mL, with 3-fold dilution for 5 gradients) per well, and incubated at 4° C. for 1 hour. After washing off the primary antibody, a 1:300 dilution of Alexa Fluro647 labeled goat anti-human IgG Fc (Jackson ImmunoResearch, 109-606-170) was added to the secondary antibody, incubated for 45 min at 4° C., and, after washing, resuspended in 50 μL of PBS per well for FACS (iQue, intellicyt) detection.

Row | Binder | affinity (FACS)
1 | B1 | 10 nM
2 | B2 | 15 nM
3 | B3 | 7 nM

Target: T2, human CD3εγ-Fc heterodimer (human)
T2 construct: also called human CD3εγ recombinant protein; human CD3εγ protein
T2 chain 1: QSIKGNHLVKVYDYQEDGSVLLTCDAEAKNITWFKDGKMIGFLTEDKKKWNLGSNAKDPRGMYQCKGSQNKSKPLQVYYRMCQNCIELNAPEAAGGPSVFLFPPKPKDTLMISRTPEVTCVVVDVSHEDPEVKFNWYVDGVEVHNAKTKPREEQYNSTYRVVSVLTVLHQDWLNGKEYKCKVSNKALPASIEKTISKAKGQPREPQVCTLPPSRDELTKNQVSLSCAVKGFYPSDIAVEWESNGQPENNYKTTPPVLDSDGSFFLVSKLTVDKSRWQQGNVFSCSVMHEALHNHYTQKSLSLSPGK
T2 chain 2: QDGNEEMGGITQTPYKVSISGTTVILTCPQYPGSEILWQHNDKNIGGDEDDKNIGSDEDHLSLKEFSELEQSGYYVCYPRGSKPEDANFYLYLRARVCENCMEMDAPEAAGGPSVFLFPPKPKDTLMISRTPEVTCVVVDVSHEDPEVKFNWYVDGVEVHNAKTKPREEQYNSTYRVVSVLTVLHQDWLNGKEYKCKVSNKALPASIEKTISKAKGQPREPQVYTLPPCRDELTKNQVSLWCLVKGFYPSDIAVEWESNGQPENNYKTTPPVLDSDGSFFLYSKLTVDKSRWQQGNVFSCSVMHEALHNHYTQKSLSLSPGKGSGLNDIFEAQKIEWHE
Experiment: SPR (Biacore T200), antigen amine-coupled on CM5 chip, antibody as analyte, 1:1 model
Experimental: 10 μg/mL human or cynomolgus monkey BCMA or CD3εγ recombinant antigen was bound to a CM5 chip (GE healthcare) by amino conjugating, while the amount of antigen bound was controlled to approximately 200 RU. After baseline plateau, gradient diluted antibodies (7 gradients of 2-fold dilutions from 10 μg/mL) were flowed through the chip at a flow rate of 30 μL/min for a binding time of 350 seconds and a dissociation time of 600 seconds. Kinetic constants were fitted using Biacore T200 evaluation software with a 1:1 binding model.

Row | Binder | Kd
4 | B4 | 31 nM
5 | B5 | 28 nM
6 | B6 | 27 nM

Target: T2, human CD3εγ-Fc heterodimer
Experiment: ELISA, coated human CD3εγ recombinant protein
Experimental: Human CD3εγ recombinant protein was coated overnight at 4° C. After blocking with 2% skim milk, different dilutions of CD3 antibody were added to each well and incubated for 1 hour. After the secondary antibody was developed by adding HPR-labeled goat anti-human IgG Fc and TMB solution, the reaction was stopped with concentrated sulfuric acid and the absorbance was read at 450 nm.

Row | Binder | affinity (ELISA)
7 | B1 | 0.6 nM
8 | B2 | 0.65 nM
9 | B7 | 0.74 nM
10 | B3 | 0.49 nM
11 | B8 | 0.7 nM

The binders below were run against T1, human CD3 on T cells (Jurkat cells; …) (assay: flow cytometry on human peripheral blood CD4+ T-cells).
Experimental: Fresh human peripheral blood was taken and PBMC was isolated by Ficoll. Paque Plu (GE, 17-1440-03). PBMC was adjusted to 5×10⁵ cells/mL with 4% calf serum (Hyclone, SH30626.06), 100 μL/well was added to a 96-well U-plate, the supernatant was centrifuged off and 100 μL of gradient diluted antibody (with starting concentration of 1800 nM, 3-fold dilution, 10 gradients) was added to each well and incubated for 60 min at 4° C. 50 μL/well of Alexa Fluro647 labeled goat anti-human IgG Fc (1:300 dilution) was added to the secondary antibody, with ice bath for 20 min, and 50 μL/well PI added after washing once, incubated for 5 min, and flow cytometer (BD C6) was used for detection. The control antibody REGN5458 was synthesized and prepared according to US20200024356.

Row | Binder | EC50
12 | B4 | 89 nM

Source: patent US20250346685A1 (published 2025)
